Experimental data published in publication PMC7181051, “Probing the Protein-Protein Interaction between the ATRXADD Domain and the Histone H3 Tail” (Molecules, 2020).
Values joined by “and” are separate entries in the source; they are usually repeats but may differ in a detail not shown here. Identical values can stand only once.

Columns and labels:
[1] = target: Histone H3 (Homo sapiens) (UniProt P68431); conditions: cited from earlier work
[2] = target: Histone H3 H3 tail peptide (Homo sapiens) (UniProt P68431); conditions: cited from earlier work
[3] = target: Histone H3 1-15 (Homo sapiens) (UniProt P68431); experiment: ITC; conditions: cited from earlier work
[4] = target: ATRXADD-His (His-tagged ATRX ADD domain) (UniProt P46100); experiment: AlphaScreen or HTRF; competition, Ni-NTA kit: ATRXADD-His (625 nM), H3_(1-15)K9me3-biotin (94 nM), 20 μg/mL of each bead, unlabeled peptide added; HEPES buffer (50 mM HEPES, 100 mM NaCl, 0.1% Triton X-100, 0.1% BSA); 1 hour, room temperature, dark
[5] = target: ATRXADD-His (His-tagged ATRX ADD domain) (UniProt P46100); experiment: AlphaScreen or HTRF; direct signal, Nickel Chelate (Ni-NTA) kit: H3_(1-15)K9me3-biotin on streptavidin beads, ATRXADD-His on Ni-NTA beads; 20 μg/mL of each bead

In the case of ATRX ADD (from UniProt P46100), the Kd [1] is listed as greater than 80 µM, the Kd [2] is listed as greater than 80 µM and the Kd [3] is listed as 0.385 µM and 2.7 µM.

“H3_(1-15)K9me0 peptide (from UniProt P68431 2-16)” showed an IC50 [4] greater than 10 µM.

Work on “H3_(1-15)K9me1 peptide (from UniProt P68431 2-16)” yielded an IC50 [4] greater than 10 µM.

For “H3_(1-15)K9me3-biotin peptide (biotin label at the C-terminus) (from UniProt P68431 2-16)”, the AlphaScreen signal [5] was 1.25e+06.
